# Patent US11471462B2, “Compositions and methods for detecting and treating diabetes” (THE BROAD INSTITUTE, INC., priority 2016, dated 2022)
# B1: SLC25A3 (protein)
# chain: AVEEYSCEFGSAKYYALCGFGGVLSCGLTHTAVVPLDLVKCRMQVDPQKYKGIFNGFSVTLKEDGVRGLAKGWAPTFLGYSMQGLCKFGFYEVFKVLYSNMLGEENTYLWRTSLYLAASASAEFFADIALAPMEAAKVRIQTQPGYANTLRDAAPKMYKEEGLKAFYKGVAPLWMRQIPYTMMKFACFERTVEALYKFVVPKPRSECSKPEQLVVTFVAGYIAGVFCAIVSHPADSVVSVLNKEKGSSASLVLKRLGFKGVWKGLFARIIMIGTLTALQWFIYDSVKVYFRLPRPPPPEMPESLKKKLGLTQ
# Tested on: SLC16A11
# Assay: SLC16A11 protein-protein interaction study (immunoprecipitation, quantitative mass spectrometry)
# Set-up: species or system human
# Conditions: putative SLC16A11^REF interaction partners; immunoprecipitation from HEK293T cells vs empty vector control; Blandt-Altman
molecule,measurement,value
B1,BA log fold change,1.65
